Data on 14 molecules can be found in US20220204565A1 (DREXEL UNIVERSITY, published 2022).

The labels stand for the following.
B1: cPT 3 (AAR029b) (peptide)
peptide: DNI[triazolo‑Pro(ferrocenyl)]WK-NH2
modifications: lactam 1-6
notes: Ferrocene-containing parent cyclic peptide triazole; also called lead cPT 3
B2: cPT 20 (peptide)
peptide: DNIPWK-NH2
modifications: lactam 1-6; not fully specified (residue 4); also: further groups not given here

In general, Kd refers to the equilibrium constant for the complex coming apart. Read a high Kd as weaker binding. Broadly, the IC50 is the concentration needed to halve the response being measured.

Bridges are numbered along the chain shown (N, C = ends). Where no end group is shown, it is not given here. [ ]: non-standard residue; d: D form. triazolo‑Pro(2,4-diMe-benzyl) = triazolo-proline with ortho- and para-methyl phenyl methyl on the triazole; triazolo‑Pro(3,4-diMe-benzyl) = triazolo-proline with para- and meta-methyl phenyl methyl on the triazole; triazolo‑Pro(3,5-diMe-benzyl) = triazolo-proline with two meta-methyl phenyl methyl on the triazole; triazolo‑Pro(2-Me-benzyl) = triazolo-proline with ortho-methyl phenyl methyl on the triazole; triazolo‑Pro(3-Me-benzyl) = triazolo-proline with meta-methyl phenyl methyl on the triazole; triazolo‑Pro(4-Me-benzyl) = triazolo-proline with para-methyl phenyl methyl on the triazole; triazolo‑Pro(4-tBu-phenyl) = triazolo-proline with para-tert-butylphenyl on the triazole; triazolo‑Pro(ferrocenyl) = triazolo-proline carrying a ferrocene moiety on the triazole; triazolo‑Pro(benzyl) = triazolo-proline with phenyl methyl moiety on the triazole; triazolo‑Pro(biphenyl) = triazolo-proline with biphenyl group on the triazole

The target of one assay is HIV-1 BaL.01 Env gp160 on pseudovirus (HIV-1 BaL.01). Briefly: cell-based or functional assay.
For the molecule DNI[4‑(4-(4-(thiophen-2-yl)phenyl)-1H-1,2,3-triazol-1-yl)proline]WK-NH2 (lactam 1-6, also called Compound 29N-2) [cPT 36 (29N-2)], the “HIV-1 infection inhibition IC50” value is around 105 nM.

As to DNI[triazolo‑Pro(2-Me-benzyl)]WK-NH2 (lactam 1-6) [cPT 25], the “HIV-1 cell infection inhibition, fold lower potency against cPT 24” value was around 28 fold.

In the case of B1, the “HIV-1Bal.01 infection inhibition IC50” value was around 237 nM.

For DNI[triazolo‑Pro]WK-NH2 (lactam 1-6; not fully specified) [cPT 18], the “HIV-1 cell infection inhibition IC50” value was around 1300 nM.

The target is the same in a further assay. The assay can be described thus: cell-based or functional assay. The source holds these as a separate data set.
Take DNI[triazolo‑Pro(benzyl)]WK-NH2 (lactam 1-6) [cPT 19]: the “HIV-1Bal.01 infection inhibition IC50” value is 438 nM.

For the molecule DNI[triazolo‑Pro(2-Me-benzyl)]WK-NH2 (lactam 1-6) [cPT 25], the “HIV-1Bal.01 infection inhibition IC50” value is 5100 nM.

Take B2: the “HIV-1Bal.01 infection inhibition IC50” value is 1200 nM.

As for DNI[triazolo‑Pro(3-Me-benzyl)]WK-NH2 (lactam 1-6) [cPT 26], the “HIV-1Bal.01 infection inhibition IC50” value worked out at 220 nM.

On to DNI[triazolo‑Pro(4-Me-benzyl)]WK-NH2 (lactam 1-6) [cPT 24], for which the “HIV-1Bal.01 infection inhibition IC50” value worked out at 180 nM.

For the molecule DNI[triazolo‑Pro(2,4-diMe-benzyl)]WK-NH2 (lactam 1-6) [cPT 27], the “HIV-1Bal.01 infection inhibition IC50” value worked out at 302 nM.

For the molecule DNI[triazolo‑Pro(biphenyl)]WK-NH2 (lactam 1-6) [cPT 23], the “HIV-1Bal.01 infection inhibition IC50” value is 269 nM.

Regarding DNI[triazolo‑Pro(4-iPr-phenyl)]WK-NH2 (lactam 1-6) [cPT 21], the “HIV-1Bal.01 infection inhibition IC50” value worked out at 900 nM.

On to DNI[triazolo‑Pro(4-tBu-phenyl)]WK-NH2 (lactam 1-6) [cPT 22], for which the “HIV-1Bal.01 infection inhibition IC50” value is 350 nM.

For DNI[triazolo‑Pro]WK-NH2 (lactam 1-6; not fully specified) [cPT 18], the “HIV-1Bal.01 infection inhibition IC50” value turned out to be 1400 nM.

DNI[triazolo‑Pro(3,4-diMe-benzyl)]WK-NH2 (lactam 1-6) [cPT 29]: the “HIV-1Bal.01 infection inhibition IC50” value was determined as 8000 nM.

With DNI[triazolo‑Pro(3,5-diMe-benzyl)]WK-NH2 (lactam 1-6) [cPT 28], the “HIV-1Bal.01 infection inhibition IC50” value was 2000 nM.

The target of another assay is T1, wild type monomeric full-length HIV-1 YU-2 gp120 (HIV-1 YU-2, UniProt P35961 32-498).
T1 construct: domain: gp120; also called gp120YU-2; gp120 YU-2
Briefly: ITC with monomeric gp120 YU-2.
Method: (§1) The resulting heat changes were integrated, and the values obtained were fitted to a quadratic binding equation (one site binding model).
(§2) cPT dissociation constants were determined at 25° C. on a VP-Isothermal Titration Calorimeter (VP-ITC) system (MicroCal™, GE Healthcare, Freiburg). […] The resulting heat change upon injection was integrated over a time range of 300 sec, and the obtained values were fitted to a standard single-site binding model using ORIGIN®.
On to DNI[4‑(4-(4-(thiophen-2-yl)phenyl)-1H-1,2,3-triazol-1-yl)proline]WK-NH2 (lactam 1-6, also called Compound 29N-2) [cPT 36 (29N-2)], for which the “-TΔS” value is -4.74 kcal/mol.

B1: the “-TΔS” value is -2.75 kcal/mol.

Another assay concerns the target T1, wild type monomeric full-length HIV-1 …. Briefly: ITC, peptide titrated into 30 µM full-length gp120 YU-2, 25 °C, PBS pH 7.3. (In general: Isothermal titration calorimetry measures the heat released or taken up as one component is titrated into another.)
Method: as §1, §2
In turn, DNI[4‑(4-(4-(thiophen-2-yl)phenyl)-1H-1,2,3-triazol-1-yl)proline]WK-NH2 (lactam 1-6, also called Compound 29N-2) [cPT 36 (29N-2)] showed a Kd of 350 nM, a ΔH of -4.07 kcal/mol and a ΔS of 0.0159 kcal/mol.

In turn, B1 yielded a Kd of 415 nM, a ΔH of -5.96 kcal/mol and a ΔS of 0.00922 kcal/mol.

The target is the same in another assay. Briefly: SPR competition: gp120 YU-2 with increasing peptide over immobilised 17b; competitor 17b.
Method: (§3) For kinetic analyses, typically 2000-3000 RUs of protein reagents are immobilized on SPR chips, and analytes are passed over the surface at 50-100 μL/min. Surface regeneration is achieved by a 5 μL injection of 10 mM HCl solution at 100 μL/min.
(§4) Data analysis of SPR competition data was performed using BIAevaluation v4.1.1 software (GE). To correct for nonspecific binding, response signals from buffer injection and from control flow cell were subtracted from all sensorgrams. […] The inhibition curve was plotted and then fitted using the four-parameter equation as shown below using OriginPro 8 graphing software.
Turning to DNI[4‑(4-(4-(thiophen-2-yl)phenyl)-1H-1,2,3-triazol-1-yl)proline]WK-NH2 (lactam 1-6, also called Compound 29N-2) [cPT 36 (29N-2)], the IC50 was around 56 nM.

The next assay has the same target. The assay is described as above. The source holds these as a separate data set.
Method: as §3, §4
For DNI[triazolo‑Pro(benzyl)]WK-NH2 (lactam 1-6) [cPT 19], the IC50 was 269 nM. That is a sub-micromolar value.

On to DNI[triazolo‑Pro(2-Me-benzyl)]WK-NH2 (lactam 1-6) [cPT 25], for which the IC50 was found to be 128 nM. This IC50 lies about 2.1-fold lower than the previous one.

The molecule B2 had an IC50 of 820 nM.

DNI[triazolo‑Pro(3-Me-benzyl)]WK-NH2 (lactam 1-6) [cPT 26] showed an IC50 of 228 nM. Compared with the last molecule, the IC50 is about 3.6-fold lower.

Consider DNI[triazolo‑Pro(4-Me-benzyl)]WK-NH2 (lactam 1-6) [cPT 24], for which the IC50 worked out at 74 nM. This IC50 is about 3.1-fold lower than that of the molecule before.

In the case of DNI[triazolo‑Pro(2,4-diMe-benzyl)]WK-NH2 (lactam 1-6) [cPT 27], the IC50 came to 136 nM.

The molecule DNI[triazolo‑Pro(biphenyl)]WK-NH2 (lactam 1-6) [cPT 23] registered an IC50 of 720 nM.

As to DNI[triazolo‑Pro(4-iPr-phenyl)]WK-NH2 (lactam 1-6) [cPT 21], the IC50 is 1260 nM.

Consider DNI[triazolo‑Pro(4-tBu-phenyl)]WK-NH2 (lactam 1-6) [cPT 22], for which the IC50 worked out at 120 nM.

For DNI[triazolo‑Pro]WK-NH2 (lactam 1-6; not fully specified) [cPT 18], the IC50 stood at 647 nM.

Molecule DNI[triazolo‑Pro(3,4-diMe-benzyl)]WK-NH2 (lactam 1-6) [cPT 29] yielded an IC50 of 2600 nM.

For the molecule DNI[triazolo‑Pro(3,5-diMe-benzyl)]WK-NH2 (lactam 1-6) [cPT 28], the IC50 amounted to 918 nM.

The target is the same in the next assay. The assay can be described thus: SPR competition: gp120 YU-2 with increasing peptide over immobilised soluble CD4; competitor CD4.
Method: as §3, §4
DNI[4‑(4-(4-(thiophen-2-yl)phenyl)-1H-1,2,3-triazol-1-yl)proline]WK-NH2 (lactam 1-6, also called Compound 29N-2) [cPT 36 (29N-2)] showed an IC50 of around 66 nM.

For another assay the target is unchanged. Described as above. This is another data set of the same source.
Method: as §3, §4
On to DNI[triazolo‑Pro(benzyl)]WK-NH2 (lactam 1-6) [cPT 19], for which the IC50 stood at 257 nM.

With DNI[triazolo‑Pro(2-Me-benzyl)]WK-NH2 (lactam 1-6) [cPT 25], the IC50 was 132 nM.

With B2, the IC50 is 956 nM.

Molecule DNI[triazolo‑Pro(3-Me-benzyl)]WK-NH2 (lactam 1-6) [cPT 26] came in with an IC50 of 234 nM.

For the molecule DNI[triazolo‑Pro(4-Me-benzyl)]WK-NH2 (lactam 1-6) [cPT 24], the IC50 is 80 nM.

As to DNI[triazolo‑Pro(2,4-diMe-benzyl)]WK-NH2 (lactam 1-6) [cPT 27], the half-maximal inhibitory concentration (IC50) amounted to 130 nM.

With DNI[triazolo‑Pro(biphenyl)]WK-NH2 (lactam 1-6) [cPT 23], the IC50 stood at 680 nM.

For DNI[triazolo‑Pro(4-iPr-phenyl)]WK-NH2 (lactam 1-6) [cPT 21], the IC50 turned out to be 1200 nM.

DNI[triazolo‑Pro(4-tBu-phenyl)]WK-NH2 (lactam 1-6) [cPT 22] yielded an IC50 of 150 nM.

DNI[triazolo‑Pro(3,4-diMe-benzyl)]WK-NH2 (lactam 1-6) [cPT 29] had an IC50 of 2800 nM. This IC50 is about 19-fold higher than that of the molecule before.

On to DNI[triazolo‑Pro(3,5-diMe-benzyl)]WK-NH2 (lactam 1-6) [cPT 28], for which the IC50 was 926 nM.

For the next assay the target is unchanged. Briefly: SPR competition: gp120 YU-2 with increasing peptide over immobilised soluble CD4; competitor CD4; CD4 competition column, not 17b competition.
Method: as §3, §4
In turn, DNI[triazolo‑Pro]WK-NH2 (lactam 1-6; not fully specified) [cPT 18] returned an IC50 of 614 nM.

Another assay shares this target. Briefly: SPR competition: fixed HIV-1 YU-2 gp120 mixed with rising concentrations of 36 and passed over immobilized 17b; y axis % gp120 binding to 17b falls from about 100 to near 0 between about 2 and 2500 nM.
Method: as §3, §4
On to DNI[4‑(4-(4-(thiophen-2-yl)phenyl)-1H-1,2,3-triazol-1-yl)proline]WK-NH2 (lactam 1-6, also called Compound 29N-2) [cPT 36 (29N-2)], for which the IC50 was found to be 56 nM.

The target is the same in another assay. The assay can be described thus: SPR competition: fixed HIV-1 YU-2 gp120 mixed with rising concentrations of 36 and passed over immobilized soluble CD4; y axis % gp120 binding to CD4 falls from about 97 to about 10 between about 5 and 2500 nM.
Method: as §3, §4
Consider DNI[4‑(4-(4-(thiophen-2-yl)phenyl)-1H-1,2,3-triazol-1-yl)proline]WK-NH2 (lactam 1-6, also called Compound 29N-2) [cPT 36 (29N-2)], for which the IC50 was 66 nM.
